Biological target: SARS-CoV2 S蛋白受体结合域(RBD) (SARS-CoV2, UniProt P0DTC2 319-541)

B1: 单克隆抗体YK-CoV2-02的Fab (Fab, V domains shown)
VH: QVQLVESGGGLIQPGGSLRLSCAVSGFTVSSNYMSWVRQAPGKGLEWVSVIYPGGSTFYADSVKGRFTISRDNDNSKNTLYLQMNSLRAEDTAVYYCARDWVRGSNWGQGTLVTVSS
VL: EIVLTQSPATLSLSPGERATLSCRASQSVSNYLAWYQQKPGQAPRLLIYDASNRATGIPARFSGSGSGTDFTLTISSLEPEDFAVYYCQERSNWPSGTFGPGTKVDIK
  Kd: 4.03 nM
